Experimental data from patent US20050238685A1, “Method of binding a compound to a surface” (priority 2002, published 2005).
Where two headings read alike, the source gives them in different places.

B1: esterase: porcine liver esterase, 60 kD (protein)
chain: GQPASPPVVDTAQGRVLGKYVSLEGLAQPVAVFLGVPFAKPPLGSLRFAPPQPAEPWSFVKNTTSYPPMCCQDPVVEQMTSDLFTNGKERLTLEFSEDCLYLNIYTPADLTKRGRLPVMVWIHGGGLVLGGAPMYDGVVLAAHENVVVVAIQYRLGIWGFFSTGDEHSRGNWGHLDQVAALHWVQENIANFGGDPGSVTIFGESAGGESVSVLVLSPLAKNLFHRAISESGVALTVALVRKDMKAAAKQIAVLAGCKTTTSAVFVHCLRQKSEDELLDLTLKMKFLTLDFHGDQRESHPFLPTVVDGVLLPKMPEEILAEKDFNTVPYIVGINKQEFGWLLPTMMGFPLSEGKLDQKTATSLLWKSYPIANIPEELTPVATDKYLGGTDDPVKKKDLFLDLMGDVVFGVPSVTVARQHRDAGAPTYMYEFQYRPSFSSDKKPKTVIGDHGDEIFSVFGFPLLKGDAPEEEVSLSKTVMKFWANFARSGNPNGEGLPHWPMYDQEEGYLQIGVNTQAAKRLKGEEVAFWNDLLSKEAAKKPPKIKHAEL
B2: trypsin: bovine pancreas trypsin, 25 kD (protein)
chain: IVGGYTCGANTVPYQVSLNSGYHFCGGSLINSQWVVSAAHCYKSGIQVRLGEDNINVVEGNEQFISASKSIVHPSYNSNTLNNDIMLIKLKSAASLNSRVASISLPTSCASAGTQCLISGWGNTKSSGTSYPDVLKCLKAPILSDSSCKSAYPGQITSNMFCAGYLEGGKDSCQGDSGGPVVCSGKLQGIVSWGSGCAQKNKPGVYTKVCNYVSWIKQTIASN
B3: alkaline phosphatase: human placental alkaline phosphatase (Roche) (protein)
chain: IIPVEEENPDFWNREAAEALGAAKKLQPAQTAAKNLIIFLGDGMGVSTVTAARILKGQKKDKLGPEIPLAMDRFPYVALSKTYNVDKHVPDSGATATAYLCGVKGNFQTIGLSAAARFNQCNTTRGNEVISVMNRAKKAGKSVGVVTTTRVQHASPAGTYAHTVNRNWYSDADVPASARQEGCQDIATQLISNMDIDVILGGGRKYMFRMGTPDPEYPDDYSQGGTRLDGKNLVQEWLAKRQGARYVWNRTELMQASLDPSVTHLMGLFEPGDMKYEIHRDSTLDPSLMEMTEAALRLLSRNPRGFFLFVEGGRIDHGHHESRAYRALTETIMFDDAIERAGQLTSEEDTLSLVTADHSHVFSFGGYPLRGSSIFGLAPGKARDRKAYTVLLYGNGPGYVLKDGARPDVTESESGSPEYRQQSAVPLDEETHAGEDVAVFARGPQAHLVHGVQEQTFIAHVMAFAACLEPYTACDLAPPAGTTD
B4: SC3: class I hydrophobin of Schizophyllum commune (protein)
chain: GGHPGTTTPPVTTTVTVTTPPSTTTIAAGGTCTTGSLSCCNQVQSASSSPVTALLGLLGIVLSDLNVLVGISCSPLTVIGVGGSGCSAQTVCCENTQFNGLINIGCTPINIL
B5: cerato-ulmin: class II hydrophobin of Ophiostoma ulmi (protein, UniProt Q06153 26-100, looked up)
Class II hydrophobin CU: SDSYDPCTGLLQKSPQCCNTDILGVANLDCHGPPSVPTSPSQFQASCVADGGRSARCCTLSLLGLALVCTDPVGI
B6: cryparin: class II hydrophobin of Cryphonectria parasitica (protein, UniProt P52753 23-118, looked up)
Class II hydrophobin CRP: GGGGGGSGSGSGSGSGSGSGGGSTTYTACSSTLYSEAQCCATDVLGVADLDCETVPETPTSASSFESICATSGRDAKCCTIPLLGQALLCQDPVGL

Experiments:
[1] = Circular dichroism of enzymes on binding to bare or hydrophobin-coated colloidal TEFLON; type: physicochemical; conditions: bare colloidal TEFLON
[2] = type: biochemical
Protocol: The sheets were removed from the hydrophobin solution and were immediately washed with large amounts of water to remove any unbound hydrophobin (5×50 ml water for five minutes); these coatings are referred to as the α-helix state. Part of the sheets were boiled in a 2% SDS solution for ten minutes, after which the sheets were extensively washed with water; these coatings are referred to as the β-sheet state. The colloidal TEFLON™ was collected by gentle centrifugation (two minutes, 2000 rpm), the supernatant was removed and the TEFLON™ pellet was resuspended in 2 ml pure water followed by centrifugation. The TEFLON™ pellet was washed five times with water to remove all unbound hydrophobin.
The bare and hydrophobin-coated sheets (α-helix state and β-sheet state) were incubated in 2 ml of enzyme solution in 3 ml glass vials at 25° C. for two hours. The used enzyme solutions were 100 μg/ml of 60 kD esterase (porcine liver), 40 kD lipase (wheat germ), or 25 kD trypsin (bovine pancreas). The sheets were washed extensively with water to remove any unbound enzyme.
The sheets with and without immobilized enzyme were used in a chromogenic assay. A 1.5 ml cuvette was filled with 1 ml of a 5 mM 4-nitrophenyl acetate solution (esterase substrate), 5 mM Na-benzoyl-DL-arginine-p-nitroanilide (trypsin substrate), or 5 mM 1,2-di-O-decanoyl-rac-glycero-3-glutaric acid-resorufin labeled in the appropriate buffers. The cuvette was placed in the spectrophotometer and the reaction was started by placing the hydrophobin-coated sheets with or without immobilized enzyme in the cuvette parallel to the light beam. The light absorbance at the appropriate wavelength was followed in time. After one hour of incubation, the sheets were taken from the cuvette and the reaction in the cuvette was followed for an additional 24 hours. The sheets were washed with water and were transferred to a new cuvette with fresh substrate and the reaction was followed again. […] 400 μl of a 100 μg/ml solution of the mentioned enzymes was added to a 1 mm cuvette and a circular dichroism spectrum was recorded between 190 and 250 nm. To this solution, increasing concentrations of pure colloidal TEFLON™ or hydrophobin-coated TEFLON™ was added and changes were followed by recording CD-spectra. […] When TEFLON™ coated with hydrophobin is added to the enzyme solutions, the changes in CD signal (after correction for the hydrophobin signal) are less pronounced. […] Furthermore, oil droplets were coated with hydrophobin. Coating of oil droplets was achieved by emulsifying 100 μl of oil (mineral oil or paraffin oil) in 3 ml of water by sonication and adding 3 ml of an aqueous solution of hydrophobin (200 μg/ml). Alternatively, the oil was directly emulsified in the hydrophobin solution and 3 ml was added. […]

[3] = Esterase, lipase and trypsin on SC3-coated oil droplets, spectrophotometric substrate conversion; type: biochemical
Protocol: The sheets with and without immobilized enzyme were used in a chromogenic assay. A 1.5 ml cuvette was filled with 1 ml of a 5 mM 4-nitrophenyl acetate solution (esterase substrate), 5 mM Na-benzoyl-DL-arginine-p-nitroanilide (trypsin substrate), or 5 mM 1,2-di-O-decanoyl-rac-glycero-3-glutaric acid-resorufin labeled in the appropriate buffers. The cuvette was placed in the spectrophotometer and the reaction was started by placing the hydrophobin-coated sheets with or without immobilized enzyme in the cuvette parallel to the light beam. The light absorbance at the appropriate wavelength was followed in time. After one hour of incubation, the sheets were taken from the cuvette and the reaction in the cuvette was followed for an additional 24 hours. The sheets were washed with water and were transferred to a new cuvette with fresh substrate and the reaction was followed again. […] 400 μl of a 100 μg/ml solution of the mentioned enzymes was added to a 1 mm cuvette and a circular dichroism spectrum was recorded between 190 and 250 nm. To this solution, increasing concentrations of pure colloidal TEFLON™ or hydrophobin-coated TEFLON™ was added and changes were followed by recording CD-spectra. […] When TEFLON™ coated with hydrophobin is added to the enzyme solutions, the changes in CD signal (after correction for the hydrophobin signal) are less pronounced. […]

[4] = Different enzymes immobilized via SC3 hydrophobin on TEFLON, spectrophotometry at 412 and 435 nm; type: biochemical; conditions: SC3-coated TEFLON; for function after storage: 4° C. in buffer solution
Protocol: The surface was first coated with SC3 hydrophobin by immersion in the protein aqueous solution (0.3 mg/mL) during approximately 30 minutes. The obtained modified surface was then immersed in an aqueous enzyme solution during approximately 30 minutes. After each step, the TEFLON™ surface was rinsed with an adequate buffer solution. Activity of the immobilized enzymes was followed by spectrophotometry at 412 and 435 nm after immersion of the functionalized surface in the corresponding substrate solution. The optical density of the solution increases after the immersion of the functionalized surface and stays constant after its removal. […] The functionalized TEFLON® was stored at 4° C. in an Eppendorf tube containing a buffer solution.
(Biocatalysts, Wales; final concentration 2.1 mg/mL), lipase from Candida cylindracea (Biocatalysts, Wales; final concentration 0.25 mg/mL), porcine liver esterase (SIGMA; 41 U/mg of solid, final concentration 2.4 mg/mL), bovine pancreas trypsin (SIGMA; 8,750 U/mg of solid).

[5] = cited from earlier work
[6] = at 50 μg ml^−1; cited from earlier work
[7] = class I: resisting 2% SDS at 100° C., class II: 60% ethanol; cited from earlier work

Molecule	structural change in CD-spectra upon binding [1]	activity and stability of enzyme attached to hydrophobin-coated sheets [2]	activity of enzyme attached to bare sheets [2]	catalytic activity of immobilized enzyme [3]	state of immobilized enzymes (denaturation, desorption) [4]	function after storage [4]	solubility of assembled membranes [7]	other results
B1	underwent structural changes	active and stable for up to one month	not active	still catalytically active	not denatured and are not desorbed from the surface	still functional after several weeks	–	–
B2	underwent structural changes	active and stable for up to one month	not active	still catalytically active	not denatured and are not desorbed from the surface	still functional after several weeks	–	–
B3	–	–	–	–	–	–	–	activity of enzyme attached to bare wells: not active
B4	–	–	–	–	–	–	–	water contact angle of coated TEFLON ([5]; TEFLON (110°) coated with hydrophobin): 48 °; water contact angle ([5]; hydrophilic side of the membrane): 36 °; water contact angle ([5]; hydrophobic side of the membrane): 110 °; maximal lowering of the water surface tension, from 72 to [6]: 24 mJ m^−2
B5	–	–	–	–	–	–	readily dissociate in 60% ethanol and in 2% SDS	–
B6	–	–	–	–	–	–	readily dissociate in 60% ethanol and in 2% SDS	–
